Like-named read-outs stand apart in the source and are kept apart here. Values belong to the binder of their own block, whether it stands above or below them.
Key:
Assay in all cases: SPR
Human C3dg-biotin [1] = molecular target: T1, Human C3dg-biotin (human, UniProt P01024 955-1303, biotin (site not stated) in the SPR experiments)
Human C3dg-biotin [2] = molecular target: T1, Human C3dg-biotin; remark: listed apart in the source
Human C3dg-biotin [3] = molecular target: T1, Human C3dg-biotin; remark: listed apart in the source
Human C3dg-biotin [4] = molecular target: T1, Human C3dg-biotin; remark: listed apart in the source

T1 sequence (P01024 955-1303): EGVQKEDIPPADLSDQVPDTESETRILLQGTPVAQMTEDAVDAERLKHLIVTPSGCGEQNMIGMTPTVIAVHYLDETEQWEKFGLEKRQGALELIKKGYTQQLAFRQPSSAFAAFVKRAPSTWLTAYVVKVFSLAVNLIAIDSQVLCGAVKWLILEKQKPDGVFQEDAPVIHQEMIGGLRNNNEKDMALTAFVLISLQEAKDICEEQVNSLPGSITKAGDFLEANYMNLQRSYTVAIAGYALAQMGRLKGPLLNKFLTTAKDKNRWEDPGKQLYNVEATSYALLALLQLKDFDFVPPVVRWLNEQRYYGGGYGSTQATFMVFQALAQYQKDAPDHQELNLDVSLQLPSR

- Kd (Human C3dg-biotin [1]): 15.5 nM
B1: CR2-CD59 (other)
chain: ISCGSPPPILNGRISYYSTPIAVGTVIRYSCSGTFRLIGEKSLLCITKDKVDGTWDKPAPKCEYFNKYSSCPEPIVPGGYKIRGSTPYRHGDSVTFACKTNFSMNGNKSVWCQANNMWGPTRLPTCVSVFPLECPALPMIHNGHHTSENVGSIAPGLSVTYSCESGYLLVGEKIINCLSSGKWSAVPPTCEEARCKSLGRFPNGKVKEPPILRVGVTANFFCDEGYRLQGPPSSRCVIAGQGVAWTKMPVCSGGGGSLQCYNCPNPTADCKTAVNCSSDFDACLITKAGLQVYNKCWKFEHCNFNDVTTRLRENELTYYCCKKDLCNFNEQLEN

- Kd (Human C3dg-biotin [2]): 451 nM
B2: CD59-CR2 (other)
chain: LQCYNCPNPTADCKTAVNCSSDFDACLITKAGLQVYNKCWKFEHCNFNDVTTRLRENELTYYCCKKDLCNFNEQLENSSGGGGSGGGGSGGGGSISCGSPPPILNGRISYYSTPIAVGTVIRYSCSGTFRLIGEKSLLCITKDKVDGTWDKPAPKCEYFNKYSSCPEPIVPGGYKIRGSTPYRHGDSVTFACKTNFSMNGNKSVWCQANNMWGPTRLPTCVSVFPLECPALPMIHNGHHTSENVGSIAPGLSVTYSCESGYLLVGEKIINCLSSGKWSAVPPTCEEARCKSLGRFPNGKVKEPPILRVGVTANFFCDEGYRLQGPPSSRC

- Kd (Human C3dg-biotin [3]): 129 nM
B3: CR2-DAF (other)
chain: ISCGSPPPILNGRISYYSTPIAVGTVIRYSCSGTFRLIGEKSLLCITKDKVDGTWDKPAPKCEYFNKYSSCPEPIVPGGYKIRGSTPYRHGDSVTFACKTNFSMNGNKSVWCQANNMWGPTRLPTCVSVFPLECPALPMIHNGHHTSENVGSIAPGLSVTYSCESGYLLVGEKIINCLSSGKWSAVPPTCEEARCKSLGRFPNGKVKEPPILRVGVTANFFCDEGYRLQGPPSSRCVIAGQGVAWTKMPVCGGGSGGGGSDCGLPPDVPNAQPALEGRTSFPEDTVITYKCEESFVKIPGEKDSVICLKGSQWSDIEEFCNRSCEVPTRLNSASLKQPYITQNYFPVGTVVEYECRPGYRREPSLSPKLTCLQNLKWSTAVEFCKKKSCPNPGEIRNGQIDVPGGILFGATISFSCNTGYKLFGSTSSFCLISGSSVQWSDPLPECREIYCPAPPQIDNGIIQGERDHYGYRQSVTYACNKGFTMIGEHSIYCTV

- Kd (Human C3dg-biotin [4]): 2600 nM
B4: DAF-CR2 (other)
chain: DCGLPPDVPNAQPALEGRTSFPEDTVITYKCEESFVKIPGEKDSVICLKGSQWSDIEEFCNRSCEVPTRLNSASLKQPYITQNYFPVGTVVEYECRPGYRREPSLSPKLTCLQNLKWSTAVEFCKKKSCPNPGEIRNGQIDVPGGILFGATISFSCNTGYKLFGSTSSFCLISGSSVQWSDPLPECREIYCPAPPQIDNGIIQGERDHYGYRQSVTYACNKGFTMIGEHSIYCTVNNDEGEWSGPPPECRSSGGGGSGGGGSGGGGSISCGSPPPILNGRISYYSTPIAVGTVIRYSCSGTFRLIGEKSLLCITKDKVDGTWDKPAPKCEYFNKYSSCPEPIVPGGYKIRGSTPYRHGDSVTFACKTNFSMNGNKSVWCQANNMWGPTRLPTCVSVFPLECPALPMIHNGHHTSENVGSIAPGLSVTYSCESGYLLVGEKIINCLSSGKWSAVPPTCEEARCKSLGRFPNGKVKEPPILRVGVTANFFCDEGYRLQGPPSSRCVIAGQGVAWTKMPVC
